Data taken from article PMC7078472.

How the values were obtained:
Assay in all cases: MYTH (membrane yeast two-hybrid) quantitative β-Gal activity assay
[1] = biological target: TbATPc prey for MYTH (T. brucei ATP synthase subunit c without MTS, NubG-HA; identical to TcATPc); details: yeast strain NMY51, n = 3, 6 colonies for each independent experiment, read off a plot
[2] = biological target: TbATPc prey for MYTH (T. brucei ATP synthase subunit c without MTS, NubG-HA; identical to TcATPc); details: yeast strain NMY51; n = 3; 6 colonies for each independent experiment; parent: est. 150; read off a plot
[3] = biological target: TbMCU bait for MYTH (without MTS, SUC signal sequence, Cub-LexA-VP16); details: yeast strain NMY51; n = 3; 6 colonies for each independent experiment; parent: est. 140; read off a plot
[4] = biological target: T. cruzi MCU (TcMCU) bait for MYTH (Cub-LexA-VP16); details: yeast strain NMY51; n = 3; 6 colonies for each independent experiment; parent: est. 180; read off a plot
[5] = biological target: TbMCU bait for MYTH (without MTS, SUC signal sequence, Cub-LexA-VP16); details: yeast strain NMY51; n = 3; 6 colonies for each independent experiment; parent: est. 140; read off a plot; remark: listed apart in the source
[6] = biological target: TbMCUc bait for MYTH (Cub-LexA-VP16); details: yeast strain NMY51; n = 3; 6 colonies for each independent experiment; parent: est. 140; read off a plot
[7] = biological target: TbMCUd bait for MYTH (Cub-LexA-VP16); details: yeast strain NMY51; n = 3; 6 colonies for each independent experiment; parent: est. 180; read off a plot

Substance: T. cruzi MCU (TcMCU) bait for MYTH (Cub-LexA-VP16) Q208A; I211P; I212P; F217A
- response ([1]; parent: est. 180): 34 units

Substance: TbMCU bait for MYTH (without MTS, SUC signal sequence, Cub-LexA-VP16) Q213A; V216P; I217P; F222A
- response [2]: 27 units
- response ([1]; parent: est. 140): 28 units

Substance: TbATPc prey for MYTH (T. brucei ATP synthase subunit c without MTS, NubG-HA; identical to TcATPc) F98L; F107L; F113L
- response [3]: 130 units

Substance: TbMCU bait for MYTH (without MTS, SUC signal sequence, Cub-LexA-VP16)
- response ([1]; parent: est. 140): 26 units

Substance: TbMCUc bait for MYTH (Cub-LexA-VP16) Q161A; V164P; L165P; F170A
- response ([1]; parent: est. 140): 30 units

Substance: TbMCU bait for MYTH (without MTS, SUC signal sequence, Cub-LexA-VP16) V216P; I217P
- response [2]: 34 units

Substance: TbMCUd bait for MYTH (Cub-LexA-VP16)
- response ([1]; parent: est. 180): 27 units

Substance: TbATPc prey for MYTH (T. brucei ATP synthase subunit c without MTS, NubG-HA; identical to TcATPc) G64A; G66A; G68A; G70A
- response [3]: 69 units

Substance: TbATPc prey for MYTH (T. brucei ATP synthase subunit c without MTS, NubG-HA; identical to TcATPc) F98L; E102A; F107L; F113L
- response [3]: 88 units

Substance: T. cruzi MCU (TcMCU) bait for MYTH (Cub-LexA-VP16)
- response ([1]; parent: est. 180): 32 units

Substance: TbMCUc bait for MYTH (Cub-LexA-VP16)
- response ([1]; parent: est. 140): 29 units

Substance: TbMCU bait for MYTH (without MTS, SUC signal sequence, Cub-LexA-VP16) Y235A; F236A; T241E; Y248A
- response [2]: 120 units

Substance: TbATPc prey for MYTH (T. brucei ATP synthase subunit c without MTS, NubG-HA; identical to TcATPc) G64L; G66L; G68L; G70L
- response [3]: 45 units
- response [4]: 58 units
- response [5]: 44 units
- response [6]: 43 units
- response [7]: 58 units

Substance: TbMCUd bait for MYTH (Cub-LexA-VP16) R123A; V126P; L127P; Y132A
- response ([1]; parent: est. 180): 34 units
